Target: GST-FKBP12
Experiment: AUC; sedimentation equilibrium of GST-FKBP12, seven serial two-fold dilutions from 320 µM, 3000-12 000 r.p.m., about 14 h, absorbance at 230 and 280 nm, Sedphat

stoichiometry N: 2
Substance: GST-FKBP12

From article PMC10150220
